The source of these data is US20200115443A1 (TRICAN BIOTECHNOLOGY, published 2020).

Assay [1] deals with T1, complement C5 (UniProt P01031 19-1676, limits assumed). In words: cell-based or functional assay.
The target in assay [2] is T2, VEGF-A (human, UniProt P15692-4 27-191, limits assumed). The experiment in a line: cell-based or functional assay.
The target of assay [3] is T1, complement C5. In words: direct ELISA, C5 coated 100 ng/well, HRP anti-human Fc detection. For orientation: In an ELISA, binding on a coated surface is turned into a signal by an enzyme label.
Assay [4] has as its target T2, VEGF-A. The experiment in a line: direct ELISA, VEGF-A coated 100 ng/well, HRP anti-human Fc detection.

T2 sequence (P15692 other isoform, or with tags, fused parts or gaps limits assumed): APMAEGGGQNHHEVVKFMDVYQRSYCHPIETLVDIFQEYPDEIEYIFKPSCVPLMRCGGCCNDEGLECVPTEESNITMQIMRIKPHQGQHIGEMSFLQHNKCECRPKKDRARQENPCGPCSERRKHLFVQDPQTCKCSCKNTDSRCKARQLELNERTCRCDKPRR

B1: bi-functional fusion protein C5V (other)
chain 1: QVQLVQSGAEVKKPGASVKVSCKASGYIFSNYWIQWVRQAPGQGLEWMGEILPGSGSTEYTENFKDRVTMTRDTSTSTVYMELSSLRSEDTAVYYCARYFFGSSPNWYFDVWGQGTLVTVSSASTKGPSVFPLAPCSRSTSESTAALGCLVKDYFPEPVTVSWNSGALTSGVHTFPAVLQSSGLYSLSSVVTVPSSNFGTQTYTCNVDHKPSNTKVDKTVERKCCVECPPCPAPPVAGPSVFLFPPKPKDTLMISRTPEVTCVVVDVSQEDPEVQFNWYVDGVEVHNAKTKPREEQFNSTYRVVSVLTVLHQDWLNGKEYKCKVSNKGLPSSIEKTISKAKGQPREPQVYTLPPSQEEMTKNQVSLTCLVKGFYPSDIAVEWESNGQPENNYKTTPPVLDSDGSFFLYSRLTVDKSRWQEGNVFSCSVMHEALHNHYTQKSLSLSLGGGGSGGGGSGGGGSSDTGRPFVEMYSEIPEIIHMTEGRELVIPCRVTSPNITVTLKKFPLDTLIPDGKRIIWDSRKGFIISNATYKEIGLLTCEATVNGHLYKTNYLTHRQTNTIIDVVLSPSHGIELSVGEKLVLNCTARTELNVGIDFNWEYPSSKHQHKKLVNRDLKTQSGSEMKKFLSTLTIDGVTRSDQGLYTCAASSGLMTKKNSTFVRVHEK
chain 2: DIQMTQSPSSLSASVGDRVTITCGASENIYGALNWYQQKPGKAPKLLIYGATNLADGVPSRFSGSGSGTDFTLTISSLQPEDFATYYCQNVLNTPLTFGQGTKVEIKRTVAAPSVFIFPPSDEQLKSGTASVVCLLNNFYPREAKVQWKVDNALQSGNSQESVTEQDSKDSTYSLSSTLTLSKADYEKHKVYACEVTHQGLSSPVTKSFNRGEC
In general, EC50 refers to the midpoint of the concentration-response curve. Consider B1, for which the “IC50, inhibition of the alternative complement pathway (hemolysis of rabbit erythrocytes by normal human serum)” value in assay [1] worked out at 25.3 nM. Moreover, in assay [2], the “IC50, inhibition of VEGF-dependent HUVEC proliferation (MTS)” value worked out at 0.195 nM. Moreover, the figures for the EC50 in assay [3] and in assay [4] were 3.57 nM and 0.288 nM, respectively.
